Experimental data as given in ChEMBL document CHEMBL1649078, “Novel antiviral C5-substituted pyrimidine acyclic nucleoside phosphonates selected as human thymidylate kinase substrates” (J Med Chem, 2011).
Calls of active or inactive are those of the source.

Experiments:
Homo sapiens [1] = species: Homo sapiens; test: Activity at human recombinant UCK by Michaelis-Menten equation analysis
[2] = Inhibition of human recombinant UCK by Double reciprocal plot analysis
Homo sapiens [3] = species: Homo sapiens; test: Binding affinity to human recombinant UCK dCMP binding site
Homo sapiens [4] = species: Homo sapiens; test: Binding affinity to human recombinant UCK ATP binding site
[5] = Displacement of Mant-ATP from human recombinant UCK by fluorescence competition assay; settings: read-out: Kd(app)
Homo sapiens [6] = species: Homo sapiens; test: Displacement of MABA-CDP from human recombinant UCK by fluorescence competition assay
[7] = target: Thymidine kinase, cytosolic (Homo sapiens) (UniProt P04183); test: Inhibition of human recombinant TK1-mediated thymidine phosphorylation ar 0.3 mM
[8] = target: Thymidine kinase 2, mitochondrial (Homo sapiens) (UniProt O00142); test: Inhibition of human recombinant TK2-mediated thymidine phosphorylation ar 0.3 mM
[9] = substrate: Cc1cn(C/C=C/CCP(=O)(O)O)c(=O)[nH]c1=O; test: (§1) Activity at human recombinant TMPK by Michaelis-Menten equation analysis
[10] = substrate: Cc1cn(C/C=C/CP(=O)(O)O)c(=O)[nH]c1=O; test: as §1
[11] = substrate: Cc1cn(C/C=C/P(=O)(O)O)c(=O)[nH]c1=O; test: as §1
[12] = substrate: Cc1cn([C@H]2C[C@H](O)[C@@H](COP(=O)(O)O)O2)c(=O)[nH]c1=O; test: as §1
[13] = substrate: O=c1[nH]c(=O)n(C/C=C/CCP(=O)(O)O)cc1Br; test: as §1
[14] = substrate: O=c1[nH]c(=O)n(C/C=C/CCP(=O)(O)O)cc1Cl; test: as §1
[15] = substrate: O=c1[nH]c(=O)n(C/C=C/CCP(=O)(O)O)cc1F; test: as §1
[16] = substrate: O=c1[nH]c(=O)n(C/C=C/CP(=O)(O)O)cc1Br; test: as §1
[17] = substrate: O=c1[nH]c(=O)n(C/C=C/CP(=O)(O)O)cc1Cl; test: as §1
[18] = substrate: O=c1[nH]c(=O)n(C/C=C/CP(=O)(O)O)cc1F; test: as §1
[19] = substrate: O=c1[nH]c(=O)n([C@H]2C[C@H](O)[C@@H](COP(=O)(O)O)O2)cc1Br; test: as §1
[20] = substrate: O=c1ccn(C/C=C/CCP(=O)(O)O)c(=O)[nH]1; test: as §1
[21] = substrate: O=c1ccn(C/C=C/CP(=O)(O)O)c(=O)[nH]1; test: as §1
[22] = substrate: O=c1ccn([C@H]2C[C@H](O)[C@@H](COP(=O)(O)O)O2)c(=O)[nH]1; test: as §1
[23] = substrate: Cc1cn(C/C=C/CCP(=O)(O)O)c(=O)[nH]c1=O; test: (§2) Ratio of kcat/km for human recombinant TMPK by Michaelis-Menten equation analysis
[24] = substrate: Cc1cn(C/C=C/CP(=O)(O)O)c(=O)[nH]c1=O; test: as §2
[25] = substrate: Cc1cn(C/C=C/P(=O)(O)O)c(=O)[nH]c1=O; test: as §2
[26] = substrate: Cc1cn([C@H]2C[C@H](N=[N+]=[N-])[C@@H](COP(=O)(O)O)O2)c(=O)[nH]c1=O; test: as §2
[27] = substrate: Cc1cn([C@H]2C[C@H](O)[C@@H](COP(=O)(O)O)O2)c(=O)[nH]c1=O; test: as §2
[28] = substrate: O=c1[nH]c(=O)n(C/C=C/CCP(=O)(O)O)cc1Br; test: as §2
[29] = substrate: O=c1[nH]c(=O)n(C/C=C/CCP(=O)(O)O)cc1Cl; test: as §2
[30] = substrate: O=c1[nH]c(=O)n(C/C=C/CCP(=O)(O)O)cc1F; test: as §2
[31] = substrate: O=c1[nH]c(=O)n(C/C=C/CP(=O)(O)O)cc1Br; test: as §2
[32] = substrate: O=c1[nH]c(=O)n(C/C=C/CP(=O)(O)O)cc1Cl; test: as §2
[33] = substrate: O=c1[nH]c(=O)n(C/C=C/CP(=O)(O)O)cc1F; test: as §2
[34] = substrate: O=c1[nH]c(=O)n(C/C=C/P(=O)(O)O)cc1Cl; test: as §2
[35] = substrate: O=c1[nH]c(=O)n([C@H]2C[C@H](O)[C@@H](COP(=O)(O)O)O2)cc1Br; test: as §2
[36] = substrate: O=c1ccn(C/C=C/CCP(=O)(O)O)c(=O)[nH]1; test: as §2
[37] = substrate: O=c1ccn(C/C=C/CP(=O)(O)O)c(=O)[nH]1; test: as §2
[38] = substrate: O=c1ccn([C@H]2C[C@H](O)[C@@H](COP(=O)(O)O)O2)c(=O)[nH]1; test: as §2

Chain of Thymidine kinase 2, mitochondrial (Homo sapiens) (O00142 whole entry): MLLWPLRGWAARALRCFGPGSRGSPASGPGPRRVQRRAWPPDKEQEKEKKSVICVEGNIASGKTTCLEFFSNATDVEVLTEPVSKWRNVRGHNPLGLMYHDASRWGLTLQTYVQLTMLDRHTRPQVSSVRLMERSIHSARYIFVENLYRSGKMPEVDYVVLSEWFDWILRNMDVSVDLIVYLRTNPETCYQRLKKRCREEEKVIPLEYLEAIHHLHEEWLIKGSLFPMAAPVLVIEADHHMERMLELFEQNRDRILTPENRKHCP
Chain of Thymidine kinase, cytosolic (Homo sapiens) (P04183 whole entry): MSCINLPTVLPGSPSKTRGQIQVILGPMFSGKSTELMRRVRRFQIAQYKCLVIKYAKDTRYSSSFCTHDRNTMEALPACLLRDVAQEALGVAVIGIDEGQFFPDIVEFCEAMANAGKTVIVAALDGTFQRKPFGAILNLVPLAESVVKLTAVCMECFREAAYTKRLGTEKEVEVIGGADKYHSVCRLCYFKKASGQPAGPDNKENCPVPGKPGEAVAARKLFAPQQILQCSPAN

With `O=c1[nH]c(=O)n(C/C=C/CP(=O)(O)O)cc1Cl` the Activity (Homo sapiens [1]) was “inactive”, the Ki [2] was 250 µM and the Activity (Homo sapiens [3]) was “Active”. The Activity (Homo sapiens [4]) was “Active”, the Kd [5] was 170 µM and the Activity (Homo sapiens [6]) was “inactive”. The inhibition [7] was 15% and the inhibition [8] was 15%.

B1: Thymidylate kinase (Homo sapiens), P23919 (protein)
chain: MAARRGALIVLEGVDRAGKSTQSRKLVEALCAAGHRAELLRFPERSTEIGKLLSSYLQKKSDVEDHSVHLLFSANRWEQVPLIKEKLSQGVTLVVDRYAFSGVAFTGAKENFSLDWCKQPDVGLPKPDLVLFLQLQLADAAKRGAFGHERYENGAFQERALRCFHQLMKDTTLNWKMVDASKSIEAVHEDIRVLSEDAIRTATEKPLGELWK
Work on B1 yielded a Km [9] of 100 µM, a kcat [9] of 0.32 s⁻¹ and a Km [10] of 24 µM. It also gave a kcat [10] of 0.84 s⁻¹, a Km [11] of 1000 µM and a kcat [11] of 0.6 s⁻¹. For the same molecule, the Km [12] was 20 µM, the kcat [12] was 3 s⁻¹ and the Km [13] was 160 µM. The kcat [13] was 0.058 s⁻¹, the Km [14] was 150 µM and the kcat [14] was 0.1 s⁻¹. It also gave a Km [15] of 1900 µM, a kcat [15] of 0.09 s⁻¹ and a Km [16] of 20 µM. The kcat [16] was 0.9 s⁻¹, the Km [17] was 130 µM and the kcat [17] was 0.5 s⁻¹. It also gave a Km [18] of 1000 µM, a kcat [18] of 0.73 s⁻¹ and a Km [19] of 10 µM. For the same molecule, the kcat [19] was 1.2 s⁻¹, the Km [20] was 2500 µM and the kcat [20] was 0.074 s⁻¹. It also gave a Km [21] of 1700 µM, a kcat [21] of 0.48 s⁻¹ and a Km [22] of 170 µM. It also gave a kcat [22] of 4.8 s⁻¹, a kcat/Km [23] of 3200 M⁻¹ s⁻¹ and a kcat/Km [24] of 35000 M⁻¹ s⁻¹. It also gave a kcat/Km [25] of 600 M⁻¹ s⁻¹, a kcat/Km [26] of 1000 M⁻¹ s⁻¹ and a kcat/Km [27] of 150000 M⁻¹ s⁻¹. For the same molecule, the kcat/Km [28] was 360 M⁻¹ s⁻¹, the kcat/Km [29] was 660 M⁻¹ s⁻¹ and the kcat/Km [30] was 47 M⁻¹ s⁻¹. The kcat/Km [31] was 45000 M⁻¹ s⁻¹, the kcat/Km [32] was 4100 M⁻¹ s⁻¹ and the kcat/Km [33] was 730 M⁻¹ s⁻¹. For the same molecule, the kcat/Km [34] was 80 M⁻¹ s⁻¹, the kcat/Km [35] was 120000 M⁻¹ s⁻¹ and the kcat/Km [36] was 30 M⁻¹ s⁻¹. It also gave a kcat/Km [37] of 280 M⁻¹ s⁻¹ and a kcat/Km [38] of 28000 M⁻¹ s⁻¹.
